Test results: publication PMC7809020

Tests used:
[1] = biological target: ATM (biolayer interferometry) (UniProt Q13315); test: BLI
[2] = biological target: ATM (biolayer interferometry) (UniProt Q13315); test: BLI; in vitro; SPOP peptide bound to ATM, measured by diffracted light wavelength

Sequence of SPOP wild-type peptide (O43791 whole entry, looked up, tested part not stated): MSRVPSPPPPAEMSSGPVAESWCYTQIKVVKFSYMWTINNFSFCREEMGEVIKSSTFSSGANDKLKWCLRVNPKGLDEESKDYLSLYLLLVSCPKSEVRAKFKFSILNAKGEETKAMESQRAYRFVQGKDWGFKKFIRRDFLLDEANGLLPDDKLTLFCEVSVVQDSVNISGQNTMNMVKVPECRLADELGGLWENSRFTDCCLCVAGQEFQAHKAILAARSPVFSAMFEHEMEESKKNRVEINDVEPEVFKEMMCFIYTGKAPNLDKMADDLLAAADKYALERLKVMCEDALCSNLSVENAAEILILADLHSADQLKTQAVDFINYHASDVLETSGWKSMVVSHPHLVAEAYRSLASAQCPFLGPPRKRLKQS

Substance	Kd [1] [µM]	amount bound relative to the mutant peptide [2] [fold]
SPOP S119N mutant peptide (from UniProt O43791)	45.5	–
SPOP wild-type peptide	–	2
SPOP wild-type peptide (from UniProt O43791)	0.0698	–
